Results taken from patent US8821836B2, “SPARC binding peptides and uses thereof” (Abraxis BioScience, LLC, priority 2008, dated 2014).
Values belong to the molecule of their own block, whether it stands above or below them.

Target: T1, SPARC (Homo sapiens, UniProt P09486)
T1 sequence (P09486 18-303): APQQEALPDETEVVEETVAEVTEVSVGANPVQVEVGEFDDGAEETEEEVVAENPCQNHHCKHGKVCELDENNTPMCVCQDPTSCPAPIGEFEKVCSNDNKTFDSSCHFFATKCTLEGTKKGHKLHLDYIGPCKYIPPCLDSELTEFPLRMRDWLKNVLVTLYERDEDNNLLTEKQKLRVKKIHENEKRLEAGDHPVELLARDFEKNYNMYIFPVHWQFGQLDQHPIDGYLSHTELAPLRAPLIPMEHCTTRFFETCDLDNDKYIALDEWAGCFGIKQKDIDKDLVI
Test: scFv phage display screening and soluble scFv ELISA with SPARC as antigen
Type: binding
Description: The overall strategy was to first, screen a human antibody phage display libraries by ELISA with SPARC as antigen.
At the start, HuScL-3® was screened four rounds (three rounds with acidic elution and one round with competitive elution) and 17 positive clones were selected by phage ELISA. […] After that, the binding specificity of the two unique antibodies was validated by soluble scFv ELISA.
Next, HuScL-2® was screened for three rounds (two rounds with trypsin-digestion elution and one round with competitive elution). In the end, 30 positive clones were selected by phage ELISA. According to the sequencing results, 29 clones shared one antibody sequence and the remaining one clone encoded another unique antibody. After that, the binding specificity of these two antibodies was validated by soluble scFv ELISA as well.

SPARC binding of scFv: SPARC binding activity
B1: ScFv 2-2: unique ScFv against SPARC from HuScL-2 library, among SEQ ID NOs: 113-116 (protein)
scFv: EVQLLESGGGLVQPGGSLRLSCAASGFTFSSYAMSWVRQAPGKGLEWVSHIQGQGRATYYADSVKGRFTISRDNSKNTLYLQMNSLRAEDTAVYYCAKTHGKFDYWGQGTLVTVSSGGGGSGGGGSGGGGSTDIQMTQSPSSLSASVGDRVTITCRASQSISSYLNWYQQKPGKAPKLLIYRASRLQSGVPSRFSGSGSGTDFTLTISSLQPEDFATYYCQQPSGVPTTFGQGTKVEIK

SPARC binding of scFv: SPARC binding activity
B2: ScFv 2-1: unique ScFv against SPARC from HuScL-2 library, among SEQ ID NOs: 113-116 (protein)
scFv: EVQLLESGGGLVQPGGSLRLSCAASGFTFSSYAMSWVRQAPGKGLEWVSMITPLGSTTAYADSVKGRFTISRDNSKNTLYLQMNSLRAEDTAVYYCAKRAGVFDYWGQGTLVTVSSGGGGSGGGGSGGGGSTDIQMTQSPSSLSASVGDRVTITCRASQSISSYLNWYQQKPGKAPKLLIYRASTLQSGVPSRFSGSGSGTDFTLTISSLQPEDFATYYCQQNDSFPTTFGQGTKVEIKR

SPARC binding of scFv: SPARC binding activity
B3: ScFv 3-2: unique ScFv against SPARC from HuScL-3 library, among SEQ ID NOs: 113-116 (protein)
scFv: EIVMTQSPGTLSLSPGDRATLSCRASQSVSGYLAWYQQKPGQAPRLLIYDASNRATGIPARFSGSGSGTDFTLTISSLQAEDVAVYYCQQYYSTLPTFGQGTKLEIKRSGGSTITSYNVYYTKLSSSGTQVQLVQSGGGVVQPGRPLKLSCAASGFTFSSYAMHWVRQAPGKGLEWVAVISYDGSNKYYADSVKGRFTISRDNSKNTLYLQMNSLRAEDTAVYYCARDLSWNDAFDIWGQGTMVTVSSAS
